This is an account of results in paper doi:10.1101/2025.08.25.672209, “Molecular Architecture and Function Mechanism of Tri-heteromeric GluN1-N2-N3A NMDA Receptors” (bioRxiv, 2025).

Assay [1] addresses T1, rat GluN1-1a (residues 1-847), CTD-truncated (rat, UniProt P35439-1).
T1 construct: signal peptide in the construct; rat GluN1-1a, residues 1-847 (CTD-truncated), GenBank NP_058706.1; no tag is stated for GluN1 itself; a T2A remnant may remain on one of the two chains (surmise); source: HEK293S GnTI- cells, baculovirus transduction, co-expressed with GluN2A and GluN3A; purified as receptor complex (Strep-Tactin, Ni resin, SEC)
In words: cryo-EM structure; GluN1-N2A-N3A (subunits co-expressed and co-purified) incubated with Fabs 4F11 and 2-8C, SEC in digitonin with 1 mM glycine and 1 mM glutamate, pH 8.0; overall resolution 7.7 Å. The note with it: both partners purified.

Assay [2] deals with T2, GluN1-N3A di-heteromeric NMDA receptor (rat, CTD-truncated; fraction of the same preparation) (rat, UniProt P35439-1;Q9R1M7-1).
T2 construct: signal peptide in the construct; rat GluN1-1a, residues 1-847, as m1; rat GluN3A, residues 1-965, as m3; also called GluN1-N3A di-NMDARs; source: HEK293S GnTI- cells, baculovirus transduction; copies: 2 + 2
In words: SEC; fluorescence-detection size-exclusion chromatography (FSEC); receptors preincubated with N1-Fab 4F11, N2A-Fab 28C or both; shift of the elution peak. The note with it: both partners purified.

B1: N1-Fab 4F11 (Fab of the anti-GluN1 monoclonal antibody clone 4F11) (Fab, V domains shown)
VH: DVQLQESGPGLVKPSQSLSLTCTVTGYSITSDYAWNWIRQFPGNKLEWMGYISYSGSTGYNPSLKSRISITRDTSKNQFFLQLNSVTTEDTATYYCARLYYGFYGMDYWGQGTSVTVSS
VL: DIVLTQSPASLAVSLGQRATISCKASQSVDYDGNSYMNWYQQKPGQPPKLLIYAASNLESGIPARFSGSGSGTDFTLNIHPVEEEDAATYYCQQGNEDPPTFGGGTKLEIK
notes: Raised against CTD-truncated human GluN1-N2A receptors; also called Fab-N1_(4F11); source: hybridoma monoclonal antibody, papain digestion, Fc removed with protein-A agarose, purified by SEC
Take B1: the binding result in assay [1] and in assay [2] was “binds” each time.
